In patent US20200140562A1 (Innovent, published 2020):

Assays:
[1] = target: T1, human OX40 on cells (CHO-hOX40, 293HEK-hOX40, Jurkat-hOX40, activated primary CD4+ T cells) (human, UniProt P43489 29-277); test: flow cytometry, 293HEK-hOX40 cells
T1 construct: whole, on cells; The cell type is told in each assay; also called CHO-OX40
T1 sequence (looked up): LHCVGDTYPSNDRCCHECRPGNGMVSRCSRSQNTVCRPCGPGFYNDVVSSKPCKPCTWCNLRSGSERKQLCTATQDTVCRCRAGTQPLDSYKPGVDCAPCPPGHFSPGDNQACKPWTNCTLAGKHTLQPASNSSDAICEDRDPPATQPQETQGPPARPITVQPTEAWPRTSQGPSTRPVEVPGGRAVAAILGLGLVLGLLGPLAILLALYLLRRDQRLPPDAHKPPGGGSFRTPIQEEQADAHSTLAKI

[2] = target: T1, human OX40 on cells (CHO-hOX40, …); test: flow cytometry, CHO-hOX40, 25 nM
[3] = target: T1, human OX40 on cells (CHO-hOX40, …); test: flow cytometry, CHO-hOX40, 50 nM
[4] = target: T1, human OX40 on cells (CHO-hOX40, …); test: flow cytometry, CHO-hOX40, 100 nM
[5] = target: T1, human OX40 on cells (CHO-hOX40, …); test: flow cytometry, CHO-hOX40, 200 nM
[6] = target: T1, human OX40 on cells (CHO-hOX40, …); test: flow cytometry, CHO-hOX40, 12.5 nM
[7] = target: T1, human OX40 on cells (CHO-hOX40, …); test: flow cytometry, CHO-hOX40, 6.25 nM
[8] = target: T1, human OX40 on cells (CHO-hOX40, …); test: flow cytometry, 293HEK-hOX40, 8 nM
[9] = target: T1, human OX40 on cells (CHO-hOX40, …); test: flow cytometry, CHO-hOX40, 3.125 nM
[10] = target: T1, human OX40 on cells (CHO-hOX40, …); test: flow cytometry, 293HEK-hOX40, 40 nM
[11] = target: T1, human OX40 on cells (CHO-hOX40, …); test: flow cytometry, CHO-hOX40, 1.5625 nM
[12] = target: T1, human OX40 on cells (CHO-hOX40, …); test: flow cytometry, 293HEK-hOX40, 1.6 nM
[13] = target: T1, human OX40 on cells (CHO-hOX40, …); test: flow cytometry, 293HEK-hOX40, 200 nM
[14] = target: T1, human OX40 on cells (CHO-hOX40, …); test: flow cytometry, CHO-hOX40, 0.78125 nM
[15] = target: T1, human OX40 on cells (CHO-hOX40, …); test: flow cytometry, CHO-hOX40, 0.390625 nM
[16] = target: T1, human OX40 on cells (CHO-hOX40, …); test: flow cytometry, CHO-hOX40, 0.1953125 nM
[17] = target: T1, human OX40 on cells (CHO-hOX40, …); test: flow cytometry, CHO-hOX40, 0.09765625 nM
[18] = target: T1, human OX40 on cells (CHO-hOX40, …); test: flow cytometry, CHO-hOX40, 0.024414063 nM
[19] = target: T1, human OX40 on cells (CHO-hOX40, …); test: flow cytometry, CHO-hOX40, 0.048828125 nM
[20] = target: T1, human OX40 on cells (CHO-hOX40, …); test: flow cytometry, activated CD4+ T cells, donor 1, 100 nM
[21] = target: T1, human OX40 on cells (CHO-hOX40, …); test: flow cytometry, activated CD4+ T cells, donor 2, 100 nM
[22] = target: T1, human OX40 on cells (CHO-hOX40, …); test: flow cytometry, CHO-hOX40, 100 nM blocker, competitor OX40L-hFc-fluorescein

B1: IgG1 control (antibody, V domains shown)
VH: EVRLLESGGGLVQPGGSLRLSCAASGFTFSNYAMGWVRQAPGKGLEWVSAISGSGGSTYYADSVKGRFTTSRDDSKNALYLQMNSLRAEDTAVYYCARGGPGWYAADVWGQGTTVTVSS
VL: DIQMTQSPSSLSASVGDRVTITCRASQSISSYLNWYQQKPGKAPKLLIYAASSLQSGVPSRFSGSGSGTDFTLTISSLQPEDFATYYCQQADLPAFAFGGGTKVEIKR
notes: Negative control; The printed entries seem to begin with a leader peptide
Q: Which results are given for B1?
A: binding result [1]: no binding (tested: 200 nM); MFI [2]: 1560 MFI; MFI [3]: 1700 MFI; MFI [4]: 1720 MFI; MFI [5]: 2820 MFI; MFI [6]: 1630 MFI; MFI [7]: 1600 MFI; MFI [8]: 5310 MFI; MFI [9]: 1750 MFI; MFI [10]: 25200 MFI; MFI [11]: 1930 MFI; MFI [12]: 5630 MFI; MFI [13]: 11100 MFI; MFI [14]: 1680 MFI; MFI [15]: 1710 MFI; MFI [16]: 1510 MFI; MFI [17]: 2380 MFI; MFI [18]: 2070 MFI; MFI [19]: 2020 MFI; MFI [20]: 6310 MFI; MFI [21]: 1710 MFI; MFI of OX40L signal on CHO-OX40 cells [22]: 35100 MFI
